14 molecules from article PMC11116822, “Nuclear factor Y-A3b binds to the SINGLE FLOWER TRUSS promoter and regulates flowering time in tomato” can be followed below.

Changes are numbered by the printed parent chain.

The target in series [1] is T1, SlNF-YA3b (MBP-6His fusion) (Solanum lycopersicum (tomato) cv. AC).
T1 chain: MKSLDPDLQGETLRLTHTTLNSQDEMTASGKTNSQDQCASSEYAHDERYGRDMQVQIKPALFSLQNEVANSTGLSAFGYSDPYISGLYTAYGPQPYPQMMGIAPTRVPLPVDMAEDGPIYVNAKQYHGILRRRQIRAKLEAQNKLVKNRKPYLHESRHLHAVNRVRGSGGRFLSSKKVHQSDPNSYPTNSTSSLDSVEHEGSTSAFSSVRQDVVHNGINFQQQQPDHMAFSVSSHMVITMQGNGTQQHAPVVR
In words: competition; 10- and 30-fold excess vs FAM box 7; EMSA on non-denaturing gels, FAM probes; buffer, salt, pH and temperature not stated. The conditions noted are these: protein: recombinant; tags: MBP; 6xHis; blunt. In general terms: A gel shift assay detects complexes by their altered migration in electrophoresis.

The target of series [2] is T1, SlNF-YA3b (MBP-6His fusion). In words: EMSA; EMSA on non-denaturing gels, FAM probes; buffer, salt, pH and temperature not stated. The settings on record: protein: recombinant; tags: MBP; 6xHis; label: FAM on forward strand (probe); blunt.
Series [3] shares this target. The series is described as follows: competition; 10- and 30-fold excess vs FAM box 3; EMSA on non-denaturing gels, FAM probes; buffer, salt, pH and temperature not stated. The settings on record: protein: recombinant; tags: MBP; 6xHis; blunt.
The target is the same in series [4]. In words: competition; 10- and 30-fold excess vs FAM box 5; EMSA on non-denaturing gels, FAM probes; buffer, salt, pH and temperature not stated. The conditions noted are these: protein: recombinant; tags: MBP; 6xHis; blunt.
The target is the same in series [5]. In words: competition; 10- and 30-fold excess vs FAM box 6; EMSA on non-denaturing gels, FAM probes; buffer, salt, pH and temperature not stated. The conditions noted are these: protein: recombinant; tags: MBP; 6xHis; blunt.
For series [6] the target is unchanged. The series is described as follows: competition; 10- and 30-fold excess vs FAM box 4; EMSA on non-denaturing gels, FAM probes; buffer, salt, pH and temperature not stated. The conditions noted are these: protein: recombinant; tags: MBP; 6xHis; blunt.
Series [7] shares this target. The series is described as follows: competition; 10- and 30-fold excess vs FAM box 2; EMSA on non-denaturing gels, FAM probes; buffer, salt, pH and temperature not stated. The conditions noted are these: protein: recombinant; tags: MBP; 6xHis; blunt.
Series [8] shares this target. In words: competition; 10- and 30-fold excess vs FAM box 1; EMSA on non-denaturing gels, FAM probes; buffer, salt, pH and temperature not stated. The conditions noted are these: protein: recombinant; tags: MBP; 6xHis; blunt.

B1: SFT-box7-m (dsDNA)
DNA 1: AGTTAGATCAGGCCGGCGGGGGAGACCTAATCCATAGTG
DNA 2: CACTATGGATTAGGTCTCCCCCGCCGGCCTGATCTAACT
As for B1, the binding result in series [1] is reported as “no binding”.

B2: SFT-box3 (dsDNA)
DNA 1: GTTAGATTGAAGTTAGTAATTGGTTATCCCACCGATGGATT
DNA 2: AATCCATCGGTGGGATAACCAATTACTAACTTCAATCTAAC
With B2, in series [2], the binding result is on record as “binds”.

B3: SFT-box3-m (dsDNA)
DNA 1: B2 DNA 1 with A19T, G22T, G23T
DNA 2: B2 DNA 2 with C19A, C20A, T23A
Regarding B3, in series [3], the binding result is “no binding”.

B4: SFT-box5-m (dsDNA)
DNA 1: ATGTTTTATCATAAAAATAAAAAATGTTTTTAATATTAATC
DNA 2: GATTAATATTAAAAACATTTTTTATTTTTATGATAAAACAT
With B4, the binding result in series [4] is given as “no binding”.

B5: SFT-box5 (dsDNA)
DNA 1: B4 DNA 1 with A20T, A21T, A22G, A23G
DNA 2: B4 DNA 2 with T19C, T20C, T21A, T22A
Consider B5, for which, in series [2], the binding result is “binds”.

B6: SFT-box6-m (dsDNA)
DNA 1: CCCTTCACCTTAGCATCAAAAAATAGGATTTACTACGAG
DNA 2: CTCGTAGTAAATCCTATTTTTTGATGCTAAGGTGAAGGG
In the case of B6, in series [5], the binding result is “no binding”.

B7: SFT-box6 (dsDNA)
DNA 1: B6 DNA 1 with A19C, A20C, A23T
DNA 2: B6 DNA 2 with T17A, T20G, T21G
Turning to B7, the binding result in series [2] was “binds”.

B8: SFT-box4-m (dsDNA)
DNA 1: TTAAATTATGTTTTCTTGGGGGGGGTTTCATTCCTTATTTA
DNA 2: TAAATAAGGAATGAAACCCCCCCCAAGAAAACATAATTTAA
As to B8, in series [6], the binding result is “no binding”.

B9: SFT-box4 (dsDNA)
DNA 1: B8 DNA 1 with G19A, G20T, G21T
DNA 2: B8 DNA 2 with C21A, C22A, C23T
Regarding B9, in series [2], the binding result was “binds”.

B10: SFT-box2 (dsDNA)
DNA 1: TAGGGGTAAGGGTAAAATATTGGAAAAATCATTTAAATAT
DNA 2: ATATTTAAATGATTTTTCCAATATTTTACCCTTACCCCTA
In the case of B10, the binding result in series [2] was “binds”.

B11: SFT-box2-m (dsDNA)
DNA 1: B10 DNA 1 with T20A, T21A, G22A, G23A
DNA 2: B10 DNA 2 with C18T, C19T, A20T, A21T
In the case of B11, the binding result in series [7] is “no binding”.

B12: SFT-box7 (dsDNA)
DNA 1: AGTTAGATCAGGCCGGCCCAATAGACCTAATCCATAGTG
DNA 2: CACTATGGATTAGGTCTATTGGGCCGGCCTGATCTAACT
On to B12, for which the binding result in series [2] is reported as “binds”.

B13: SFT-box1 (dsDNA)
DNA 1: GAATCAAGACACGATGATATTGGGACGCTTTGGGGTGTAT
DNA 2: ATACACCCCAAAGCGTCCCAATATCATCGTGTCTTGATTC
As for B13, the binding result in series [2] was “binds”.

B14: SFT-box1-m (dsDNA)
DNA 1: B13 DNA 1 with A19T, G22T, G23T
DNA 2: B13 DNA 2 with C18A, C19A, T22A
B14: the binding result in series [8] was “no binding”.
